Laboratory results from patent US20130177528A1, “COMPOSITIONS AND METHODS FOR INHIBITING VIRAL INFECTION” (WESTERN UNIVERSITY OF HEALTH SCIENCES, priority 2011, published 2013).

Tests used:
[1] = test system: HSV-2 (333 gJ-reporter virus); experiment: HSV-2 infection of HeLa cells, ONPG assay (Example 4); format: cell-based; conditions: virus pre-incubated; starting concentration 1 mg/ml
Method: In this experiment different clinical strains of HSV-1 (F, G, and MP strains of HSV-1 [37] at 25 pfu/cell) were either pre-incubated with 1×PBS (control) or with CN at the concentrations indicated in FIG. 8, panel A for 90 min at room temperature. After 90 min of incubation the two pools of viruses were incubated with Nectin-1 receptor expressing CHO Igβ cells that express β-galactosidase upon viral entry as described. The viral infection blocking was measured by ONPG assay (FIG. 8, panel A). Similar experiment was conducted using Lac Z encoded HSV-2 (333 gJ-reporter virus). HSV-2 is a genital herpes virus. […] Each value shown is the mean of three or more determinations (±SD).

[2] = test system: HSV-1 strains F, G and MP; experiment: Entry of clinical HSV-1 strains into nectin-1 CHO Ig8 cells, cells pre-incubated with CN (Example 10); format: cell-based, herpes simplex virus type-1; conditions: nectin-1 CHO Ig8 cells pre-incubated with 10 μM, MP at 25 pfu/cell, 6 h
Method: (A) In this experiment nectin-1 Chinese hamster ovary (CHO) Ig8 cells that express β-galactosidase upon viral entry were pre-treated with 10 μM contortrostatin (CN; indicated as treated [Tr]) or mock treated (indicated as untreated [Un]) with phosphate saline buffer for 90 min at room temperature followed by infection using clinical isolates of herpes simplex virus type-1 (HSV-1; F,G, and MP at 25 pfu/cell) for 6 h. The viral entry blocking was measured by o-nitro-phenyl-β-o-galactopyranoside (ONPG) assay as previously described. Error bars represent SD. (B) Confluent monolayers of HeLa cells were infected with HSV-1 (804) strain at 0.01 PFU/cell in presence (panel i) and absence (panel ii) of CN for 2 h at 37° C. Viral replication in HeLa cells were visualized 24 h post-infection for plaques. a=significant differences from corresponding mock-treated controls (P<0.05, t-test).
The next question was to evaluate the broader significance of CN as an anti-HSV agent. Therefore the ability of CN to block viral entry in different clinical virulent strains of HSV-1 (F, G and MP) was tested. Here, nectin-1 expressing CHO Ig8 cells that express β-galactosidase upon viral entry were used. The cells were preincubated with CN at 10 μM and then infected with clinical isolates of HSV-1.

[3] = test system: HSV-1 (KOS) gL86; experiment: HSV-1 infection of HeLa cells at MOIs 5, 15 and 25 PFU/cell (Example 6); format: cell-based, herpes simplex virus type-1; conditions: virus pre-incubated 180 min, 6 hr
Method: HeLa cells were each grown to 100% confluency in 96-well plates. The β-galactosidase-expressing recombinant virus HSV-1 (KOS) HSV-1 gL86 […] was pre-incubated at MOIs of 5 (FIG. 10, panel A), 15 (FIG. 10, panel B) and 25 (FIG. 10, panel C) plaque-forming units per cell (PFU) with VCN (VN), CN or ADAM15 (Ad15) at the concentrations indicated or mock treated with 1 X phosphate saline buffer for 180 min at room temperature. After 6 hr, the cells were washed, permeabilized and incubated with ONPG substrate (3.0 mg/ml). The β-gal enzymatic activity was measured at an optical density of 410 nm (OD 410). Mock treated HSV-1 with PBS was used as a […] control ((+) infected with virus alone; (−) uninfected control).

[4] = test system: HSV-1 (KOS) gL86; experiment: HSV-1 infection of HeLa, Vero and 293T cells, virus pre-incubated (Example 3); format: cell-based, herpes simplex virus type-1; conditions: virus 30 pfu/cell pre-incubated 90 min, 6 hr
Method: CN blocks herpes simplex virus type-1 (HSV-1) infection of natural target cells. HeLa, Vero and 293T cells were each grown to 100% confluency in 96-well plates. The β-galactosidase-expressing recombinant virus HSV-1 (KOS) HSV-1 gL86 (30 pfu/cell) was pre-incubated with CN at the concentration indicated in FIG. 7 or mock treated with 1 X phosphate saline buffer for 90 min at room temperature. After 6 hr, the cells were washed, permeabilized and incubated with ONPG substrate (3.0 mg/ml). The β-gal enzymatic activity was measured at an optical density of 410 nm (OD 410). Each value shown in FIG. 7 is the mean of three or more determinations (±SD). Mock treated HSV-1 with PBS was used as a control. HSV-1 infection of HeLa (panel A) and Vero and 293T cells (panel B) was blocked by CN.

[5] = test system: HSV-1 (KOS) gL86; experiment: HSV-1 entry into natural target cells (HeLa, human corneal fibroblasts), cells pre-incubated with CN (Example 9); format: cell-based, herpes simplex virus type-1; conditions: for HSV-1 entry (β-galactosidase activity, OD 410): 25 pfu/cell, 6 h
Method: In this experiment (A) HeLa and (B) primary cultures of human corneal fibroblasts (CF) were used. They were either pre-treated with contortrostatin (CN) at indicated concentrations or mock-treated (positive control [+]) with phosphate saline buffer for 90 min at room temperature. β-galactosidase-expressing recombinant virus herpes simplex virus type-1 (HSV-1; KOS) gL86 (25 pfu/cell) was used to infect cells. Uninfected cells were kept as negative control (−). After 6 h, the cells were washed, permeabilized and incubated with […] expressed from the input viral genome. The enzymatic activity was measured at an optical density of 410 nm (OD 410). Error bars represent SD. a=significant difference from controls and/or treatments (P<0.05, t-test).
To confirm blocking activity of CN on HSY-I entry, HeLa and primary cultures of human CF were used. It has been shown that HeLa and human CF naturally express gD receptors. […] This raises the possibility that the effect of CN can be more pronounced in the natural target cells and that it may not depend on gD receptors. […] The inhibitory effect is likely dependent on the type of integrins expressed on the surface of cells.

B1: contortrostatin (protein)
chain: DAPANPCCDAATCKLTTGSQCADGLCCDQCKFMKEGTVCRRARGDDLDDYCNGISAGCPRNPFHA
HSV-2 infection of HeLa cells (dose response, ONPG assay) [1]: blocks infection
entry of clinical HSV-1 strains (ONPG assay) [2]: blocked the entry of different strains of HSV-1
HSV-1 infection of HeLa cells, blocking and rank order (β-gal activity, OD 410) [3]: blocked by CN >VCN >ADAM15
HSV-1 infection (β-gal activity, OD 410) ([4]; 293T cells): blocked
HSV-1 infection (β-gal activity, OD 410) ([4]; HeLa cells): blocked
HSV-1 infection (β-gal activity, OD 410) ([4]; Vero cells): blocked
HSV-1 entry (β-galactosidase activity, OD 410) ([5]; HeLa cells pre-incubated 90 min): significant blocking of HSV-1 entry
concentration at which strong inhibition of entry was observed ([5]; natural target cells (HeLa and CF)): < 1 µM
HSV-1 entry (β-galactosidase activity, OD 410) ([5]; primary human corneal fibroblasts (CF) pre-incubated 90 min): significant blocking of HSV-1 entry
